The source of these data is publication PMC11924222, “Integrated Study of Fluorescence Enhancement in the Y176H Variant of Cyanobacterial Phytochrome Cph1” (Biochemistry, 2025).

The target in one series is His260 (UniProt position 260, SAYHCHLTYLK). The experiment in a line: not stated for the pKa value; the article cites resonance Raman, MAS NMR and absorption studies. Particulars: Pr (dark-adapted) state, PCB-bound holoprotein; cited from earlier work.
Series [1] deals with the molecule itself. The experiment in a line: crystal structure; X-ray, 3.7 Å; crystals grown in 0.3 M ammonium formate, 0.1 M HEPES pH 6.9, 18% Sokalan CP7; four protomers in the asymmetric unit.

Take “Phytochrome-like protein Cph1 (cyanobacterial phytochrome 1), photosensory module, wild type (Synechocystis sp. PCC 6803)”: the pKa with His260 is 7.5.

B1: Cph1 Y176H variant of the Cph1 photosensory module (residues 1-514; NTS, nPAS, GAF and PHY domains), crystallization construct with N141R (domain or fragment, Synechocystis 6803, UniProt Q55168 1-514, looked up)
chain: MATTVQLSDQSLRQLETLAIHTAHLIQPHGLVVVLQEPDLTISQISANCTGILGRSPEDLLGRTLGEVFDSFQIDPIQSRLTAGQISSLNPSKLWARVMGDDFVIFDGVFHRNSDGLLVCELEPAYTSDNLPFLGFYHMARAALNRLRQQANLRDFYDVIVEEVRRMTGFDRVMLHRFDENNHGDVIAEDKRDDMEPYLGLHYPESDIPQPARRLFIHNPIRVIPDVYGVAVPLTPAVNPSTNRAVDLTESILRSAYHCHLTYLKNMGVGASLTISLIKDGHLWGLIACHHQTPKVIPFELRKACEFFGRVVFSNISAQEDTETFDYRVQLAEHEAVLLDKMTTAADFVEGLTNHPDRLLGLTGSQGAAICFGEKLILVGETPDEKAVQYLLQWLENREVQDVFFTSSLSQIYPDAVNFKSVASGLLAIPIARHNFLLWFRPEVLQTVNWGGDPNHAYEATQEDGKIELHPRQSFDLWKEIVRLQSLPWQSVEIQSALALKKAIVNLILRQAEE
modifications: phycocyanobilin (PCB) chromophore covalently attached to Cys259
notes: Cyanobacterial phytochrome Cph1 from Synechocystis 6803, photosensor residues 1-514 (NTS, nPAS, GAF and PHY domains), with Y176H and, for crystallization, N141R; PDB 2VEA is the wild-type parent; not shown: His6, N-terminal, cleaved
As to B1, the binding result in series [1] is “binds”.

What is called pKa is the pH at which an ionisable group is half protonated.
